# Results taken from IntAct's records for PubMed 16959570.
# B1: FK506-binding protein 4 (Saccharomyces cerevisiae), Q06205 (parent)
# chain: MSDMLPLATYSLNVEPYSPTPALNFKIPVTIRITMAAIDPEPFDDDKKPSTLRIIKRNPELTRGEYYNQDNNDGLEEDESESEQEADVPKRSVKSKKGKAVEQSESEDSEDENEIDDEFEECVLLTLSPKGQYQQALDITIAPEEDVQFVVTGSYTISLTGNYVKHPFDNSSDSDEDEEDYYSDEESSNGEEEEEEEEEDDEELSSGDDDLDDLVDASDIESRLDELVKKDEKKKNNKKDSKRKHEEDEEESAKPAEKKQTTKKDKKAEKVKDSEESKPKPKTKLLEGGIIIEDRVTGKGPHAKKGTRVGMRYVGKLKNGKVFDKNTKGKPFVFKLGQGEVIKGWDIGVAGMAVGGERRIVIPAPYAYGKQALPGIPANSELTFDVKLVSMK
# Variants of: B1
# Conditions: with h3_yeast HHT1, P61830
row,Variant,effect of a mutation on the interaction
1,F323A,disrupting interaction
